Laboratory results from paper PMC12117036.

Target: rhodamine-labeled rabbit skeletal muscle actin (rabbit) (UniProt P68135)

Chain of espin (ectoplasmic specialization protein), recombinant protein (B1AK53 whole entry): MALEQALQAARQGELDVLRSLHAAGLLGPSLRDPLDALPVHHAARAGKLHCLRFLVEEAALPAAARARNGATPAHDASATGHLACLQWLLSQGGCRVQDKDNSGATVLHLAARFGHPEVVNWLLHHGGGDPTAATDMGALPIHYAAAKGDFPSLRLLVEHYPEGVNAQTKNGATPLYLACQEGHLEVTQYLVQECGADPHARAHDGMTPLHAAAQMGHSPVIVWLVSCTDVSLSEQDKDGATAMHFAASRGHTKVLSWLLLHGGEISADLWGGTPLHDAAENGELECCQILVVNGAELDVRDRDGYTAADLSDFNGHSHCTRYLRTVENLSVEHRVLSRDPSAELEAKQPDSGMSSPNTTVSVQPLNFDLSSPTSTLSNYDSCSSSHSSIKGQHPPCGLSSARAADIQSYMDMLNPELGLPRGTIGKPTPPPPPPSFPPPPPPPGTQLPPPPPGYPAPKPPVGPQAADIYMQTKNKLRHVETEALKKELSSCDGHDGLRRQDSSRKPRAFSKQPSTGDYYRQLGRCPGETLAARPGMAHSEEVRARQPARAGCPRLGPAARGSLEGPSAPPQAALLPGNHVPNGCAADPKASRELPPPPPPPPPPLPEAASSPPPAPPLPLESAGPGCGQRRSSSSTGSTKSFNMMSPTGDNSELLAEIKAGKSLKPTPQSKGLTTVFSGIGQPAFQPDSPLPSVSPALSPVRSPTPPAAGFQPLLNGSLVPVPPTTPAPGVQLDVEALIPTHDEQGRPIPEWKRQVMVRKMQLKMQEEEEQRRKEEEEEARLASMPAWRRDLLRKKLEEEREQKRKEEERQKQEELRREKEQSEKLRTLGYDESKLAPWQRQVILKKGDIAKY

- minimum concentration of purified espin at which bundling of pre-polymerized rhodamine-actin filaments (3 uM) was seen by confocal imaging (Fig. 4L): 100 nM
Substance: espin (ectoplasmic specialization protein), recombinant protein (from UniProt B1AK53 1-854) (natural protein)
